Data published in the Human Domainome abundance scans (Beltran et al. 2025).
± gives the uncertainty stated by the source.

B1: TOX high mobility group box family member 3, residues 256 to 323; numbered along this chain, O15405 (parent)
chain: QKPVSAYALFFRDTQAAIKGQNPNATFGEVSKIVASMWDSLGEEQKQVYKRKTEAAKKEYLKALAAYR

Variants of: B1
Experiment: abundance fitness (aPCA) (normalised: wild type 0, dead -1); higher = more abundant; growth selection in yeast, the domain comes from the species named
Settings: Homo sapiens

Row | Variant | abundance fitness
1 | S36N | -0.054 ± 0.076
2 | S36D | -0.03 ± 0.096
3 | S36R | -0.114 ± 0.056
4 | L61H | 0.134 ± 0.034
5 | L61Y | -0.087 ± 0.099
6 | L61R | 0.015 ± 0.045
7 | L61V | 0.119 ± 0.059
8 | K57S | -0.052 ± 0.05
9 | K57Q | -0.021 ± 0.09
10 | K57F | -0.23 ± 0.086
11 | K57Y | -0.282 ± 0.091
12 | K57D | 0.025 ± 0.063
13 | K57R | -0.164 ± 0.053
14 | K57M | 0.036 ± 0.088
15 | K57A | -0.034 ± 0.069
16 | A55W | -0.297 ± 0.058
17 | A55Y | -0.276 ± 0.094
18 | A55D | -0.104 ± 0.07
19 | A55T | -0.041 ± 0.064
20 | A55F | -0.211 ± 0.077
21 | F27V | 0.004 ± 0.049
22 | F27S | 0.154 ± 0.051
23 | F27H | 0.182 ± 0.094
24 | G28E | 0.175 ± 0.075

Row | Variant | abundance fitness
25 | G28W | -0.175 ± 0.06
26 | G28I | -0.076 ± 0.23
27 | G28D | 0.098 ± 0.083
28 | G28R | 0.118 ± 0.04
29 | G28Q | -0.159 ± 0.1
30 | G28S | 0.013 ± 0.046
31 | R68P | 0.297 ± 0.066
32 | R68Q | -0.044 ± 0.089
33 | R68A | -0.07 ± 0.1
34 | R68V | -0.355 ± 0.063
35 | R68E | 0.197 ± 0.058
36 | R68F | -0.33 ± 0.25
37 | R68Y | -0.292 ± 0.11
38 | S5E | -0.022 ± 0.066
39 | S5I | -0.94 ± 0.39
40 | V34T | -0.444 ± 0.11
41 | V34G | -0.358 ± 0.06
42 | V34P | -0.689 ± 0.11
43 | V34L | -0.529 ± 0.069
44 | V34K | -0.922 ± 0.2
45 | V34Q | -0.954 ± 0.38
46 | V34A | -0.012 ± 0.05
47 | V34Y | -0.974 ± 0.22
48 | V34C | -0.137 ± 0.093

Row | Variant | abundance fitness
49 | V34R | -1.01 ± 0.14
50 | E43H | -0.27 ± 0.13
51 | E43W | -0.359 ± 0.07
52 | E43R | -0.274 ± 0.075
53 | E43M | -0.255 ± 0.12
54 | E43Y | 0.076 ± 0.11
55 | E43K | -0.218 ± 0.1
56 | E43Q | -0.002 ± 0.07
57 | V4H | -0.182 ± 0.081
58 | V4N | 0.02 ± 0.1
59 | V4G | -0.005 ± 0.063
60 | V4Y | -0.24 ± 0.097
61 | V4P | -0.001 ± 0.077
62 | F11G | -0.915 ± 0.17
63 | F11P | -1.17 ± 0.24
64 | F11S | -0.264 ± 0.1
65 | A17L | -0.071 ± 0.056
66 | A17C | -0.278 ± 0.14
67 | A17T | 0.035 ± 0.062
68 | A17E | -0.082 ± 0.1
69 | A17F | -0.071 ± 0.075
70 | A17W | -0.234 ± 0.08
71 | A17G | -0.19 ± 0.079
72 | Q45Y | -0.373 ± 0.23

Row | Variant | abundance fitness
73 | Q45P | -0.546 ± 0.066
74 | Q45G | -0.17 ± 0.055
75 | L9Q | 0.053 ± 0.073
76 | L9N | -0.705 ± 0.41
77 | L9S | 0.077 ± 0.091
78 | L9T | -0.039 ± 0.084
79 | L9W | -0.218 ± 0.11
80 | L9G | -0.303 ± 0.083
81 | L9R | -0.498 ± 0.1
82 | L9I | 0.233 ± 0.13
83 | E59S | -0.166 ± 0.068
84 | E59M | -0.51 ± 0.16
85 | E59K | 0.024 ± 0.084
86 | E59P | -0.061 ± 0.085
87 | E59T | -0.083 ± 0.1
88 | Q47A | -0.101 ± 0.075
89 | Q47I | -0.498 ± 0.49
90 | Q47V | -0.033 ± 0.086
91 | Q47F | -0.445 ± 0.14
92 | Q47G | -0.103 ± 0.05
93 | Q47M | -0.11 ± 0.089
94 | A16I | -0.071 ± 0.15
95 | A16E | 0.158 ± 0.076
96 | A16Y | -0.564 ± 0.15

Row | Variant | abundance fitness
97 | A16C | -0.376 ± 0.086
98 | A16G | -0.209 ± 0.074
99 | A16N | 0.078 ± 0.13
100 | A16D | 0.068 ± 0.12
101 | K19V | -0.122 ± 0.056
102 | K19Q | 0.069 ± 0.066
103 | K19Y | -0.151 ± 0.11
104 | K19H | -0.197 ± 0.094
105 | K19W | -0.519 ± 0.24
106 | K19A | -0.051 ± 0.063
107 | R12Y | -0.135 ± 0.19
108 | R12C | -0.457 ± 0.16
109 | R12H | 0.062 ± 0.15
110 | R12N | 0.168 ± 0.093
111 | K32I | -0.416 ± 0.14
112 | K32D | -0.078 ± 0.075
113 | K32Y | -0.662 ± 0.14
114 | Q1L | -0.124 ± 0.072
115 | A56L | -0.109 ± 0.037
116 | A56S | -0.146 ± 0.052
117 | A56F | -0.548 ± 0.23
118 | A56Y | -0.102 ± 0.17
119 | A56K | 0.17 ± 0.071
120 | A56P | -0.233 ± 0.086

Row | Variant | abundance fitness
121 | A56W | -0.463 ± 0.07
122 | K2V | -0.201 ± 0.059
123 | K2Q | -0.337 ± 0.14
124 | K2P | -0.267 ± 0.085
125 | K2H | -0.012 ± 0.12
126 | R51N | -0.017 ± 0.052
127 | R51Y | -0.199 ± 0.096
128 | R51I | -0.175 ± 0.082
129 | R51Q | -0.041 ± 0.058
130 | R51P | -0.225 ± 0.059
131 | R51F | -0.256 ± 0.066
132 | R51L | 0.021 ± 0.04
133 | R51E | 0.222 ± 0.079
134 | R51G | -0.032 ± 0.049
135 | K46M | -0.356 ± 0.086
136 | K46H | -0.836 ± 0.24
137 | K46P | -0.978 ± 0.19
138 | K46Y | -0.529 ± 0.17
139 | K46G | -0.8 ± 0.075
140 | P3G | 0.033 ± 0.049
141 | P3F | 0.125 ± 0.081
142 | P3K | -0.035 ± 0.072
143 | P3V | -0.14 ± 0.088
144 | P3Q | -0.292 ± 0.096

Row | Variant | abundance fitness
145 | A25R | -0.088 ± 0.052
146 | A25S | -0.287 ± 0.045
147 | A25C | -0.369 ± 0.079
148 | A25I | -0.121 ± 0.066
149 | A25L | -0.155 ± 0.07
150 | A25Q | -0.328 ± 0.13
151 | Q15V | -0.173 ± 0.057
152 | Q15N | -0.212 ± 0.3
153 | Q15K | -0.109 ± 0.091
154 | Q15C | -0.178 ± 0.2
155 | S40A | 0.005 ± 0.062
156 | S40Y | -0.295 ± 0.094
157 | S40C | -0.338 ± 0.15
158 | S40D | -0.223 ± 0.11
159 | S40W | -0.838 ± 0.15
160 | S40N | 0.005 ± 0.1
161 | D13V | -0.344 ± 0.074
162 | D13I | -0.442 ± 0.095
163 | D13F | -0.494 ± 0.12
164 | D13C | -0.314 ± 0.091
165 | D13G | -0.855 ± 0.22
166 | D13N | -0.462 ± 0.13
167 | L41D | -0.847 ± 0.34
